Earlier results, collected in PMC8810291.

Target: FNIP1 (Homo sapiens) (UniProt Q8TF40)
Sequence (Q8TF40 whole entry): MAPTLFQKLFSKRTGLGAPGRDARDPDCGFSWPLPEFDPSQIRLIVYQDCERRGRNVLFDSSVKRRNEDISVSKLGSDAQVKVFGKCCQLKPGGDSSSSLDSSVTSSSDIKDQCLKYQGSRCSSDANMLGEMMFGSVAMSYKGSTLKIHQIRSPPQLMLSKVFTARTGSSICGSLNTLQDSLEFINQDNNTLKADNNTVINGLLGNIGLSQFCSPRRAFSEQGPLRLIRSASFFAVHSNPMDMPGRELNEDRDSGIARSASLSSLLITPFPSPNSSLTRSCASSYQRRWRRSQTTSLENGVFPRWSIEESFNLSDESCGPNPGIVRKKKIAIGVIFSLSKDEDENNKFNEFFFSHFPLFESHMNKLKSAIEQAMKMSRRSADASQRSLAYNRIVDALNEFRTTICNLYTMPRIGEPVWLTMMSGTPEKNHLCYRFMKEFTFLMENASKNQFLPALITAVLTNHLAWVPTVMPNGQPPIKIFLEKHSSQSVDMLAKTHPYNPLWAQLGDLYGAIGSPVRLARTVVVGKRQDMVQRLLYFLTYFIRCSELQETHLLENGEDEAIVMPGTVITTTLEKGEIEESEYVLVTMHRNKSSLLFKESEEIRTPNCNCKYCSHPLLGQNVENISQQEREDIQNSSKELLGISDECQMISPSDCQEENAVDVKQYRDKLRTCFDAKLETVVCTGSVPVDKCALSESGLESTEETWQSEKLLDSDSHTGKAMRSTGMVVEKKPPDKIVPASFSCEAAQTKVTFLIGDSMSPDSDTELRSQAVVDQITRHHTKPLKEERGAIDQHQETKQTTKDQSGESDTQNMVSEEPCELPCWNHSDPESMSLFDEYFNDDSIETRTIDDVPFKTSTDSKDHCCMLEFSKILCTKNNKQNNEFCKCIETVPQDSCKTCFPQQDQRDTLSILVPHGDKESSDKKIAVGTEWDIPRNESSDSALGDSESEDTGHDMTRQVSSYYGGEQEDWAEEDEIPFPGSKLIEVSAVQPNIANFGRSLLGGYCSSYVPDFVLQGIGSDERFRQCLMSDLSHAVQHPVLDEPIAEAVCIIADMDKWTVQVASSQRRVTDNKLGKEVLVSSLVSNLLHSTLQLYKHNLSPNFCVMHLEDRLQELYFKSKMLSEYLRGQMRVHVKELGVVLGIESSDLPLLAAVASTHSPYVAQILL

FEM1B, sequence (Q9UK73 whole entry): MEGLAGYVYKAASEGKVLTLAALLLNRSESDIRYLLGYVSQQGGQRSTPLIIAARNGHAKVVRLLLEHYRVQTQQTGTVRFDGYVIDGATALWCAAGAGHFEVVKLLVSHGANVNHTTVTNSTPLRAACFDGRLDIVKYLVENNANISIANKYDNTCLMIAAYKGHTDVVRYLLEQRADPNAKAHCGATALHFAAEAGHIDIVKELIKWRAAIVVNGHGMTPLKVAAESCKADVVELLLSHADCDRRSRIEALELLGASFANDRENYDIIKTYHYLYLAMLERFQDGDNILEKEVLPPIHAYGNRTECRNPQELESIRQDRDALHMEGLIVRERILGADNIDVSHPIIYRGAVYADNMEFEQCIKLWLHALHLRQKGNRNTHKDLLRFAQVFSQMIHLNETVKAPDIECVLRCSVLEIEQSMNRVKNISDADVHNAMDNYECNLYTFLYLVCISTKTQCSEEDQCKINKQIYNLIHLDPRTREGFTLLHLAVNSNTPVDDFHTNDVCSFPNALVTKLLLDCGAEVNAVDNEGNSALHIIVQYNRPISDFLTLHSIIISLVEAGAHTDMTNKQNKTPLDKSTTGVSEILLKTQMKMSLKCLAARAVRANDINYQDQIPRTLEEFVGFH

In the case of FEM1B (from UniProt Q9UK73), the Kd is given as 0.02 µM.
